# Experimental data from US20170355773A1.
# Assays:
# [1] = target: TNFRSF25-Fc protein (UniProt Q93038); assay: single point capture ELISA: scFv on anti-c-myc, biotinylated antigen, streptavidin-HRP
# [2] = target: TNFRSF25-Fc protein (UniProt Q93038); assay: capture ELISA, scFv, against the wild-type
Binder,OD450 [1],fold increase in ELISA signal [2] [fold]
"27A3 (scFv mutant of W3072-z4C12) (scFv, V domains shown, not shown: small tags and cut ends) VH: EVQLVESGGGLSQPGNSLQLSCEASGFTFSNHDLNWVRQAPGKGLEWVAYISSASGLISYADAVRGRFTISRDNAKNSLFLQMNNLKSEDTAMYYCARDPPYTGLYALDFWGQGTQVTVSS VL: QPVLTQSPSASASLSGSVKLTCTLSSELSSYTIVWYQQRPDKAPKYVMYLKSDGSHSKGDGIPDRFSGSSSGAHRYLSISNVQSEDDATYFCGAGYTLAGQYGWVFGSGTKVTVL",1.61,–
"42G2 (scFv mutant of W3072-z4C12) (scFv, V domains shown, not shown: small tags and cut ends) VH: EVQLVESGGGLSQPGNSLQLSCEASGFTFSNHDLNWVRQAPGKGLEWVAYISSASGLISYADAVRGRFTISRDNAKNSLFLQMNNLKSEDTAMYYCARDPPYSGLYALDFWGQGTQVTVSS VL: QPVLTQSPSASASLSGSVKLTCTLSSELSWYTIVWYQQRPDKAPKYVMYLKSDGSHSKGDGIPDRFSGSSSGAHRYLSISNVQSEDDATYFCGAGYTLAGQYGWVFGSGTKVTVL",3.19,> 10
"42H8 (scFv mutant of W3072-z4C12) (scFv, V domains shown, not shown: small tags and cut ends) VH: EVQLVESGGGLSQPGNSLQLSCEASGFTFSNHDLNWVRQAPGKGLEWVAYISSASGLISYADAVRGRFTISRDNAKNSLFLQMNNLKSEDTAMYYCARDPPYSGLYALDFWGQGTQVTVSS VL: QPVLTQSPSASASLSGSVKLTCTLSSELSYYTIVWYQQRPDKAPKYVMYLKSDGSHSKGDGIPDRFSGSSSGAHRYLSISNVQSEDDATYFCGAGYTLAGQYGWVFGSGTKVTVL",1.67,–
"42F9 (scFv mutant of W3072-z4C12) (scFv, V domains shown, not shown: small tags and cut ends) VH: EVQLVESGGGLSQPGNSLQLSCEASGFTFSNHDLNWVRQAPGKGLEWVAYISSASGLISYADAVRGRFTISRDNAKNSLFLQMNNLKSEDTAMYYCARDPPYSGLYALDFWGQGTQVTVSS VL: QPVLTQSPSASASLSGSVKLTCTLSSELSFYTIVWYQQRPDKAPKYVMYLKSDGSHSKGDGIPDRFSGSSSGAHRYLSISNVQSEDDATYFCGAGYTLAGQYGWVFGSGTKVTVL",2.33,–
"43F11 (scFv mutant of W3072-z4C12) (scFv, V domains shown, not shown: small tags and cut ends) VH: EVQLVESGGGLSQPGNSLQLSCEASGFTFSNHDLNWVRQAPGKGLEWVAYISSASGLISYADAVRGRFTISRDNAKNSLFLQMNNLKSEDTAMYYCARDPPYSGLYALDFWGQGTQVTVSS VL: QPVLTQSPSASASLSGSVKLTCTLSSELSSFTIVWYQQRPDKAPKYVMYLKSDGSHSKGDGIPDRFSGSSSGAHRYLSISNVQSEDDATYFCGAGYTLAGQYGWVFGSGTKVTVL",1.6,–
"66B8 (scFv mutant of W3072-z4C12) (scFv, V domains shown, not shown: small tags and cut ends) VH: EVQLVESGGGLSQPGNSLQLSCEASGFTFSNHDLNWVRQAPGKGLEWVAYISSASGLISYADAVRGRFTISRDNAKNSLFLQMNNLKSEDTAMYYCARDPPYSGLYALDFWGQGTQVTVSS VL: QPVLTQSPSASASLSGSVKLTCTLSSELSSYTIVWYQQRPDKAPKYVMYLKSDGSHSKGDGIPDRFSGSSSGAHRYLSISNVQSEDDATYFCGAGYTLANQYGWVFGSGTKVTVL",0.4,–
